Source: the Immune Epitope Database (IEDB)
pKd: −log10 of the molar value.

Target: HLA-A*02:01
Assay: IEDB peptide-MHC binding, purified MHC/direct/fluorescence; filed as Kd, often an IC50 or EC50 that approximates it; ≥ and ≤ were set here for values at or beyond the usual limits of such assays
Settings: source organism: Human immunodeficiency virus 1

| Sequence | pKd |
| --- | --- |
| SLFNAVVTL | 8.00 |
| SLFNTVATV | 7.60 |
| SLFNTVVTL | 7.49 |
| SLYNAVATL | 7.35 |
| SLYNAVVTL | 8.00 |
| SLYNLVAVL | 6.14 |
| SLYNTIAIL | 6.30 |
| SLYNTISVL | 7.21 |
| SLYNTITVL | 7.06 |
| SLYNTVSTL | 6.74 |
| SLYNTVVTL | 7.70 |
| SVYNTVATL | 6.55 |
